According to paper PMC11003769:
Substitutions are numbered along the chain they refer to.

B1: Fab of mAb 15-3 (Fab, V domains shown)
VH: QVQLQESGPGVVKPSETLSLSCGVSSASILGGYFFWSWIRQSPGKGLEWMGGVYTNSDTTNYNPSLKSRVAISKDTSVNQFSLRLTSVTAADTAVYYCTARATVHSSASYYYGGRIDVWGPGLLVTVSS
VL: DIQMTQSPSSLSASLGDRVTVTCRASQGINRDLSWFQQKPGKAPTLLIYEVSNLQTGVSSRFSGSGSGTDFTLTISSLQPEDVATYYCQQDYDFPLTFGGGTKVDLK
B2: Fab of mAb 7-2 (Fab, V domains shown)
VH: QVQLQASGPGVVKPSETLSLTCAVSGDYVRRGYFYWSWVRQSPGKGLEWIGGIYSNSDTTNYNPSLKSRLTISKDTSNNQFFLTLSSVTAADTAVYYCTSRAKIYSSGSYYAGGRIDVWGPGVQVIVSS
VL: B1 VL with I2V, Q3H, R18S, R31K, K42E, E50D, V51A, N53T, S77N
B3: Fab of mAb 6-6 (Fab, V domains shown)
VH: QVQLQVSGPGVVKPSETLSLTCSVSGDSFRRAYFFWSWVRQPPGKGLEWMGGIYTNSESTTYNPSLESRISVSKDASKNQFSLRLTSVTAADTAVYYCTSRAEVYFSGGYYSGGRIDVWGPGVLVTVSS
VL: DIQMTQSPSSLSASVGDRVTVTCRASQDINKDLSWFQQKPGEAPTLLIFTASTLQTGVSSRFSGSGSGTSFSLTISSLQPEDVATYFCQQDHSFPLTFGGGTRVDLQ

Molecular target: HIV-1 BG505.DS.SOSIP.S613A Env trimer (HIV-1 (strain BG505))
Test: BLI; Trimer-Fab method, Octet RED384, 25 °C, 1% BSA in PBS: trimer (100 nM) held by RM19R-human Fc IgG on anti-human Fc capture tips; Fab as analyte in serial dilutions; global fit to a 1:1 Langmuir model

Binder	Kd	koff	kon
B1	0.104 nM	7.98e-06 s⁻¹	76500 M⁻¹ s⁻¹
B2	0.774 nM	0.000109 s⁻¹	141000 M⁻¹ s⁻¹
B3	17 nM	0.00304 s⁻¹	179000 M⁻¹ s⁻¹
